Patent US20200277399A1

Assays:
[1] = biological target: 2F5 antibody; test: ELISA on coated 2F5; Fc variant 0.01371742 ug/ml
[2] = biological target: 2F5 antibody; test: ELISA on coated 2F5; Fc variant 3.33333333 ug/ml
[3] = biological target: 2F5 antibody; test: ELISA on coated 2F5; Fc variant 0.37037037 ug/ml
[4] = biological target: 2F5 antibody; test: ELISA on coated 2F5; Fc variant 0.12345679 ug/ml
[5] = biological target: 2F5 antibody; test: ELISA on coated 2F5; Fc variant 0.04115226 ug/ml
[6] = biological target: 2F5 antibody; test: ELISA on coated 2F5; Fc variant 0.00457247 ug/ml
[7] = biological target: 2F5 antibody; test: ELISA on coated 2F5; Fc variant 1.11111111 ug/ml
[8] = biological target: 2F5 antibody; test: ELISA on coated 2F5; Fc variant 10 ug/ml

| Substance | absorbance [1] | absorbance [2] | absorbance [3] | absorbance [4] | absorbance [5] | absorbance [6] | absorbance [7] | absorbance [8] |
| --- | --- | --- | --- | --- | --- | --- | --- | --- |
| Fc_ELDKWA_BC (from UniProt P0DOX5 227-449) | 0.0107 | 0.232 | 0.047 | 0.0213 | 0.0197 | 0.0133 | 0.091 | 0.619 |
| Fc_ELDKWA_DE (from UniProt P0DOX5 227-449) | 0.0283 | 0.846 | 0.185 | 0.0673 | 0.038 | 0.0177 | 0.495 | 1.25 |
| Fc_ELDKWA_FG (from UniProt P0DOX5 227-449) | 0.0215 | 1.32 | 0.297 | 0.108 | 0.0365 | 0.012 | 0.706 | 1.4 |
